Experiment [1] has as its target Spike protein on live SARS-CoV-2 Victoria strain (SARS-CoV-2 (Victoria), UniProt P0DTC2 14-1273). As to the kind of experiment: cell-based or functional assay.
Experiment [2] has as its target T1, SARS-CoV-2 receptor-binding domain fused to hIgG1 Fc (SARS-CoV-2 (Wuhan/Victoria), UniProt P0DTC2 330-532). As to the kind of experiment: SPR, trimer analyte, RBD ligand.
For experiment [3], the target named is T2, SARS-CoV-2 receptor-binding domain (amino acids 330-532), prototypical Wuhan/Victoria (SARS-CoV-2 (Wuhan/Victoria), UniProt P0DTC2 330-532). As to the kind of experiment: SPR, VHH analyte over immobilised RBD.
In experiment [4] the target is T2, SARS-CoV-2 receptor-binding domain …. As to the kind of experiment: SPR, VHH analyte, biotinylated RBD ligand.
For experiment [5] the target is unchanged. As to the kind of experiment: SPR.
The target is the same in experiment [6]. As to the kind of experiment: SPR, RBD binding kinetics.
Experiment [7] deals with T1, SARS-CoV-2 receptor-binding domain …. As to the kind of experiment: SPR, VHH analyte over immobilised RBD.

B1: C5 trimer (VHH)
chain: QVQLVESGGGSVQAGGSLTLSCVASGVTLGRHAIGWFRQAPGKERERVSCIRTFDGITSYVESTKGRFTISSNNAMNTVYLQMNSLKPEDTAVYFCALGVTAACSDNPYFWGQGTQVTVSSGSGSGSQVQLVESGGGSVQAGGSLTLSCVASGVTLGRHAIGWFRQAPGKERERVSCIRTFDGITSYVESTKGRFTISSNNAMNTVYLQMNSLKPEDTAVYFCALGVTAACSDNPYFWGQGTQVTVSSGSGSGSQVQLVESGGGSVQAGGSLTLSCVASGVTLGRHAIGWFRQAPGKERERVSCIRTFDGITSYVESTKGRFTISSNNAMNTVYLQMNSLKPEDTAVYFCALGVTAACSDNPYFWGQGTQVTVSS
notes: also called trimeric C5 nanobody; C5-6GS-C5-6GS-C5
On to B1, for which the “ND 50 MN assay, live virus” value in experiment [1] was 0.02 nM. Further, in experiment [2], the Kd worked out at 0.018 nM and the T1/2 is 1.53 h.

B2: C1 (VHH)
VHH: QVQLVESGGGLVQPGGSLRLSCAASGFTNDFYSIAWFRQAPGKEREGVSWLSVSDNTPTYVDSVKDRFTISRHNANNTVYLQMNMLKPEDTAIYYCAAGRFAGRDTWPSSYDYWGQGTQVTVSS
Take B2: the Kd in experiment [3] and in experiment [4] was 0.615 nM each time.

B3: C1-SUMO-H3-Fc (Fc fusion)
chain: QVQLVESGGGLVQPGGSLRLSCAASGFTNDFYSIAWFRQAPGKEREGVSWLSVSDNTPTYVDSVKDRFTISRHNANNTVYLQMNMLKPEDTAIYYCAAGRFAGRDTWPSSYDYWGQGTQVTVSSGSGSGSDSEVNQEAKPEVKPEVKPETHINLKVSDGSSEIFFKIKKTTPLRRLMEAFAKRQGKEMDSLRFLYDGIRIQADQTPEDLDMEDNDIIEAHREQIGSGSGSQVQLVESGGGLVKTGGSLRLSCAASGRTFSTYSMGWFRQAPGKEREFVAGMRWTGSSTFYSDSVKGRFTVSRNNAKDTVYLHMNSLKPEDTAVYYCAITTIVRAYYTEYTEADFGSWGQGTQVTVS
notes: also called C1-GSGSGS-SUMO-GSGSGS-H3
Regarding B3, in experiment [5], the “fold increase in affinity on combining the VHHs” value (“fold increase in affinity” below) is roughly 40 fold. Also, in experiment [6], binding was put at a Kd of 0.011 nM, the T1/2 turned out to be 4.1 h, the koff was found to be 4.7e-05 s⁻¹ and the kon turned out to be 4.3e+06 M⁻¹ s⁻¹.

B4: B12 (VHH)
VHH: QVQLVESGGGFVQPGGSLRLSCAVSGGTFSTYGMGWFRQAPGKEREIVAAIRRSGSTYYADSVRGRFTISRDNAKNSVLLQMNSLKPEDTAVYYCAARRAGREYEYWGQGTQVTVSS
notes: also called VHH B12
Turning to B4, in experiment [7], binding was characterised by a dissociation constant (Kd) of 0.077 nM, the T1/2 worked out at 0.7 h, the koff came out at 0.00027 s⁻¹ and the on-rate constant (kon) amounted to 3.6e+06 M⁻¹ s⁻¹.

B5: C1 trimer (VHH)
chain: QVQLVESGGGLVQPGGSLRLSCAASGFTNDFYSIAWFRQAPGKEREGVSWLSVSDNTPTYVDSVKDRFTISRHNANNTVYLQMNMLKPEDTAIYYCAAGRFAGRDTWPSSYDYWGQGTQVTVSSGSGSGSQVQLVESGGGLVQPGGSLRLSCAASGFTNDFYSIAWFRQAPGKEREGVSWLSVSDNTPTYVDSVKDRFTISRHNANNTVYLQMNMLKPEDTAIYYCAAGRFAGRDTWPSSYDYWGQGTQVTVSSGSGSGSQVQLVESGGGLVQPGGSLRLSCAASGFTNDFYSIAWFRQAPGKEREGVSWLSVSDNTPTYVDSVKDRFTISRHNANNTVYLQMNMLKPEDTAIYYCAAGRFAGRDTWPSSYDYWGQGTQVTVSS
Regarding B5, in experiment [1], the “ND 50 MN assay, live virus” value was determined as 4.9 nM. Besides, in experiment [2], the Kd turned out to be 0.053 nM, the T1/2 stood at 4.03 h, the koff was 4.8e-05 s⁻¹ and the kon stood at 900000 M⁻¹ s⁻¹.

B6: H3 trimer (VHH)
chain: QVQLVESGGGLVKTGGSLRLSCAASGRTFSTYSMGWFRQAPGKEREFVAGMRWTGSSTFYSDSVKGRFTVSRNNAKDTVYLHMNSLKPEDTAVYYCAITTIVRAYYTEYTEADFGSWGQGTQVTVSSGAVLAPQVQLVESGGGLVKTGGSLRLSCAASGRTFSTYSMGWFRQAPGKEREFVAGMRWTGSSTFYSDSVKGRFTVSRNNAKDTVYLHMNSLKPEDTAVYYCAITTIVRAYYTEYTEADFGSWGQGTQVTVSSGSGSGSQVQLVESGGGLVKTGGSLRLSCAASGRTFSTYSMGWFRQAPGKEREFVAGMRWTGSSTFYSDSVKGRFTVSRNNAKDTVYLHMNSLKPEDTAVYYCAITTIVRAYYTEYTEADFGSWGQGTQVTVSS
Regarding B6, the “ND 50 MN assay, live virus” value in experiment [1] turned out to be 0.4 nM. In experiment [2], this molecule came in with a dissociation constant (Kd) of 0.0003 nM, a T1/2 of 5.82 h, a koff of 3.3e-05 s⁻¹ and a kon of 1.2e+08 M⁻¹ s⁻¹.

B7: C1-SUMO-H11-H4-Fc (Fc fusion)
chain: QVQLVESGGGLVQPGGSLRLSCAASGFTNDFYSIAWFRQAPGKEREGVSWLSVSDNTPTYVDSVKDRFTISRHNANNTVYLQMNMLKPEDTAIYYCAAGRFAGRDTWPSSYDYWGQGTQVTVSSGSGSGSDSEVNQEAKPEVKPEVKPETHINLKVSDGSSEIFFKIKKTTPLRRLMEAFAKRQGKEMDSLRFLYDGIRIQADQTPEDLDMEDNDIIEAHREQIGSGSGSQVQLVESGGGLMQAGGSLRLSCAVSGRTFSTAAMGWFRQAPGKEREFVAAIRWSGGSAYYADSVKGRFTISRDKAKNTVYLQMNSLKYEDTAVYYCAQTHYVSYLLSDYATWPYDYWGQGTQVTVSS
notes: also called C1-GSGSGS-SUMO-GSGSGS-H11-H4
For B7, the “fold increase in affinity” value in experiment [5] is roughly 40 fold. In experiment [6], the Kd amounted to 0.013 nM, the T1/2 was found to be 2.8 h, the koff was determined as 6.8e-05 s⁻¹ and the association rate constant (kon) was 5.1e+06 M⁻¹ s⁻¹.

B8: C1-SUMO-C5-Fc (Fc fusion)
chain: QVQLVESGGGLVQPGGSLRLSCAASGFTNDFYSIAWFRQAPGKEREGVSWLSVSDNTPTYVDSVKDRFTISRHNANNTVYLQMNMLKPEDTAIYYCAAGRFAGRDTWPSSYDYWGQGTQVTVSSGSGSGSDSEVNQEAKPEVKPEVKPETHINLKVSDGSSEIFFKIKKTTPLRRLMEAFAKRQGKEMDSLRFLYDGIRIQADQTPEDLDMEDNDIIEAHREQIGSGSGSQVQLVESGGGSVQAGGSLTLSCVASGVTLGRHAIGWFRQAPGKERERVSCIRTFDGITSYVESTKGRFTISSNNAMNTVYLQMNSLKPEDTAVYFCALGVTAACSDNPYFWGQGTQVTVSS
notes: also called C1-GSGSGS-SUMO-GSGSGS-C5
On to B8, for which, in experiment [5], the “fold increase in affinity” value is roughly 240 fold. In experiment [6], this molecule yielded a Kd of 0.00163 nM, a T1/2 of 246 h, an off-rate (koff) of 4.9e-05 s⁻¹ and a kon of 3e+07 M⁻¹ s⁻¹.

B9: F2 (VHH)
VHH: QVQLVESGGGLVQAGGSLRLACIASGRTFHSYVMAWFRQAPGKEREFVAAISWSSTPTYYGESVKGRFTISRDNAKNTVYLQMNRLKPEDTAVYFCAADRGESYYYTRPTEYEFWGQGTQVTVSS
notes: also called VHH F2
As to B9, the Kd in experiment [3] and in experiment [4] was 0.04 nM each time.

B10: A8 trimer (bispecific antibody)
chain: QVQLVESGGGLVQAGGSLRLSCAASGGTFSTAAMGWFRQAPGEERECVASIGWRGVRTWYADSVKGRFTISRDNPQNTVYLQMNNLKSGDTAVYYCAASVGNYGLPWAHFEYDFWGQGIQVTVSSGSGSGSQVQLVESGGGLVQAGGSLRLSCAASGGTFSTAAMGWFRQAPGEERECVASIGWRGVRTWYADSVKGRFTISRDNPQNTVYLQMNNLKSGDTAVYYCAASVGNYGLPWAHFEYDFWGQGIQVTVSSGSGSGSQVQLVESGGGLVQAGGSLRLSCAASGGTFSTAAMGWFRQAPGEERECVASIGWRGVRTWYADSVKGRFTISRDNPQNTVYLQMNNLKSGDTAVYYCAASVGNYGLPWAHFEYDFWGQGTQVTVSSKHHHHHH
Take B10: in experiment [1], the “ND 50 MN assay, live virus” value was found to be 0.09 nM. Further, in experiment [2], the dissociation constant Kd was found to be 0.005 nM and the T1/2 turned out to be 4.63 h.

B11: H3 (VHH)
VHH: QVQLVESGGGLVKTGGSLRLSCAASGRTFSTYSMGWFRQAPGKEREFVAGMRWTGSSTFYSDSVKGRFTVSRNNAKDTVYLHMNSLKPEDTAVYYCAITTIVRAYYTEYTEADFGSWGQGTQVTVSS
Consider B11, for which the Kd in experiment [3] and in experiment [4] was 0.025 nM in each case. Besides, the T1/2 in experiment [3] and in experiment [4] was 0.583 h in each case.
